The chains are these.
B1: 561_09_23 (antibody, V domains shown)
VH: QAHLFQSGAELKRPGASVRISCRADDDPYTDDDTFTKYYTHWIRQAPGQRPEWLGVISPHFARPIYSYKFQDRLTLTRDSSLTAVYLELRSLRLDDTGIYYCARDPFGERAPHYNYHMDVWGAGTTVIVSS
VL: EVVLTQSPAILSASPGDRVVLSCRASEGLDSSQLAWYRFKDGQIPRLVLFGVSNRARGTPDRFSGGGSGADFTLTISRVEREDFATYYCQRFGATPITFGGGTRLDMN
B2: 561_01_23 (antibody, V domains shown)
VH: QLVQSGGGVRRPGASVKISCETPEYTFTKYWLHWLRQAPGRGLEWMGVVSPHGGRPMFAFEFRDRLTLTRDIHTTTHYMELRGLTSDDTAVYFCARDSFGETFRGHDQPYQMDVWGGGTTVVVSS
VL: EPVLTQSPGTLSLSPGEGATLSCRARQGFSADHVAWFQKKPGRPPRLLIFEASRRASGTPERFSGGGSGPEYTLTITRVEPEDFAVYYCQSYGSITPLVFGGGTRVDVK
B3: 561_02_12 (antibody, V domains shown)
VH: B2 VH with Y25D, R41Q, Y78F, F93Y, S98P, Q111R, V121I
VL: B2 VL with L13V, G66S, P81A
B4: 561_02_21 (antibody, V domains shown)
VH: B2 VH with R10K, R41Q, R82G, S86L, F93Y, S98P, H106R, D107E, V121I, S124T
VL: B2 VL with P2A, V3L, G66S
B5: 561_03_07 (antibody, V domains shown)
VH: B2 VH with Y25D, R41Q, Y78F, R82G, F93Y, S98P, Q111R, V121I
VL: B2 VL with L13V, G66S
B6: 561_01_29 (antibody, V domains shown)
VH: B2 VH with I18V, V114L
VL: B2 VL with A19V, A52T
B7: 561_03_78 (antibody, V domains shown)
VH: B2 VH with R82G, F93Y, S98P, V121I
VL: B2 VL with G18R, G66S
B8: 561_01_21 (antibody, V domains shown)
VH: QRRLFQSGTEVKRPGASVKISCRADDDPYTDDDTFTKYYTHWIRQAPGQRPEWLGVISPHFARPIYSYKFQDRLTLTRDSSLTAVYFELRGLQPDDTGIYFCARDPFGDMYPHYNYHMDVWGGGTTVIVSA
VL: EVVLTQSPAILSVSPGDRVILSCKASEGLSSSDLAWYRFKGGQIPTLVIFGTSTRARGTPDRFSGSGSGTDFTLTISRVEPEDFATYYCQRYGGTPITFGGGTTLDKK
B9: 561_10_07 (antibody, V domains shown)
VH: QGRFFQSGAEVKRPGASVRISCRADDDPYTDDDTFTKYWTHWIRQAPGQRPEWLGVISPHFARPIYSYKFRDRLTLTRDSSLTAVYLELQGLQPDDSGIYYCARDPFGDRAPHYNYHMDVWGGGTAVIVSS
VL: B8 VL with K24R, S30D, S31P, S32T, D33H, G41R, T54N, G69E, T70A, S77T
B10: 561_02_47 (antibody, V domains shown)
V domain 1: B8 VH with F61Y, V127L
V domain 2: B8 VL with G41S, T52A, T54N, S64A, S77N
B11: 561_02_27 (antibody, V domains shown)
VH: B8 VH with R2G, F61Y, Q71R
VL: B8 VL with T52A, T54N, S77N
B12: 561_01_33 (antibody, V domains shown)
VH: B8 VH with R2G, Q71R
VL: B8 VL with T54N, S77N, E80Q
B13: 561_02_10 (antibody, V domains shown)
VH: B8 VH with R2G, Y39H, F61Y, D109N
VL: B8 VL with G41R, T52A, S77N
B14: 561_01_54 (antibody, V domains shown)
VH: B8 VH with R2G, G91D, P94S, Y116S
VL: B8 VL with G41S, T52A, T54N, S77N
B15: 561_02_22 (antibody, V domains shown)
VH: B8 VH with R2G, T9A, Q71R
VL: B8 VL with G51A, T54N, R78K, E80Q
B16: 561_09_71 (antibody, V domains shown)
VH: QLAQSGGGVKKPGASVKISCVTPESTFTKYWLHWVRQAPGQGFEWLGVVSPHGGRPMFANKFRDRLTLTRDIHTTTHYMELRGLTSDDTAIYYCARDSFGETFRHSGDQPYQMDVWGGGTNIVVSS
VL: EPVLTQSPGTLSLSPGERATLSCRASQGFSVDHLAWFQKRPGRPPRLLIFETSRRANGSPDRFSGSASGAEYTLTISNVEPEDFAVYYCQSYGSITPLIFGGGTRVDVK
B17: 561_08_52 (antibody, V domains shown)
VH: QLVQWGGGVKRPGASVRISCQCPEDTFTKYYIHWVRQAPGRGLEWLGMVSPHGGRPFHTSEFRDRLTMTRDIHETTHHMVLSGLGVADSGTYFCARDPLGEKSPAYSHHMDVWGGGATVIVSS
VL: AVVLTQSPVTLSVSPGETAILSCRASHGLDTRHVTWFQQKRGQAPRLLIFATYRRASGVSDRFRATDSGSATDFNLTITAVEPADFATYFCQTYGAITPITFGGGTKVDLK
B18: 561_09_89 (antibody, V domains shown)
VH: B17 VH with D71E, A87G
VL: B17 VL with T18S, I20V, Y53S, S68G, F90Y, V108L
B19: 561_03_59 (antibody, V domains shown)
VH: B9 VH with G2R, F4L, A9T, R71Q, A84G, Q90K, P94L, Y101F
VL: EVVLTQSPAILSVSPGDRVSFSCRASEGLDTSQLAWYRFKRGQIPTLVIFATSNRARGTPDRFSGSGSGADFTLTINRVEPEDFATYYCQRYGATPITFGGGTTLDKK

Substitutions are numbered along the chain they refer to.

The target of one test is YU2_(gp140) (foldon trimer) (HIV-1 (strain YU2)).
With B1, the binding result was “binds”.

With B2, the binding result is reported as “binds”.

Take B3: the binding result was “binds”.

In the case of B4, the binding result is recorded as “binds”.

Turning to B5, the binding result is “binds”.

As for B6, the binding result is “binds”.

Regarding B7, the binding result was “binds”.

Take B8: the binding result is on record as “binds”.

B9: the binding result was “binds”.

As to B10, the binding result was “binds”.

B11: the binding result was “binds”.

In the case of B12, the binding result is given as “binds”.

Take B13: the binding result is recorded as “binds”.

Turning to B14, the binding result was “binds”.

Regarding B15, the binding result is recorded as “binds”.

For B16, the binding result is recorded as “binds”.

Turning to B17, the binding result is recorded as “binds”.

Consider B18, for which the binding result is on record as “binds”.

Take B19: the binding result is on record as “binds”.

In a further test the target is BG505_(SOSIP.664) Env trimer (HIV-1 BG505 (clade A), SOSIP.664 with …, stabilised).
Regarding B1, the binding result was “binds”.

As to B2, the binding result was “binds”.

With B3, the binding result is listed as “binds”.

Consider B4, for which the binding result is on record as “binds”.

As for B5, the binding result is given as “binds”.

Regarding B6, the binding result was “binds”.

Take B7: the binding result is listed as “binds”.

For the molecule B8, the binding result is given as “binds”.

As to B9, the binding result was “binds”.

On to B10, for which the binding result is reported as “binds”.

Take B11: the binding result is listed as “binds”.

As for B12, the binding result was “binds”.

With B13, the binding result is reported as “binds”.

Consider B14, for which the binding result is “binds”.

Turning to B15, the binding result is “binds”.

Turning to B16, the binding result is recorded as “binds”.

B17: the binding result is “binds”.

For B18, the binding result is “binds”.

For B19, the binding result was “binds”.

These data come from PMC7042716 (Cell, 2020).
